Results as given in the supplement of paper PMC9170038.

Test system: MS2 coat protein
Assay: apparent KD of MS2 coat protein; designed switch direction (-1 OFF switch, 1 ON switch): -1; higher = weaker reporter binding
In short: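 Designed RNA switches with common flanks were transcribed on Illumina chips by stalled E. coli RNA polymerase and titrated with SNAP-549-labelled MS2 coat protein, from 0.7 or 1.5 nM doubling to 3 µM, in Tris-HCl pH 7.5 buffer with KCl, MgCl2, BSA, DTT, tRNA and Tween-20. Steps lasted 0.8–1.5 h (lowest) to 10–20 min (highest). Titrations ran without input, with 200 uM small-molecule ligand, or with an oligonucleotide input. Normalised cluster fluorescence was curve-fitted, and apparent KD is the per-design median over clusters.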

[1] = input ligand: microRNA oligo, concentration not stated
[2] = Eterna round: R95, input ligand: microRNA oligo, concentration not stated
[3] = Eterna round: R95, input ligand: FMN 200 uM
[4] = Eterna round: R95, input ligand: none

GAUCAUGCAGGAUAUACAUGGAACAUGUAAACAUGAAUUUCACAUGAGGAUCACCCAUGUAGAAGGGCAUGAUC [Omei Ex2 A13] (Eterna round: R97, puzzle: Exclusion 2)
apparent KD of MS2 coat protein (input ligand: FMN 200 uM): 0.314 µM
apparent KD of MS2 coat protein (input ligand: none): 2.2 µM

GAUCCACAUGAGGAUCACCCAUGUUAGGAUAUUCAGCCUUGGUCACGGGAGUCAGGGCGGAGAAGGAACCCUUU [Eternabot (L2) Solution 16] (Eterna round: R97, puzzle: Exclusion 1)
apparent KD of MS2 coat protein (input ligand: FMN 200 uM): 0.0144 µM
apparent KD of MS2 coat protein (input ligand: none): 0.013 µM

GAUCCUCAGACGGACGUCACGAAACAUGAGGAUCACCCAUGUGAGGAUAUCUCCAAAAGGUCGGCAGAGAAGGCACCAUAACAA [Eternabot solution 19] (Eterna round: R96, puzzle: Exclusion NG 3)
apparent KD of MS2 coat protein (input ligand: FMN 200 uM): 0.261 µM
apparent KD of MS2 coat protein [1]: 0.131 µM
apparent KD of MS2 coat protein (input ligand: none): 0.139 µM

GAUCGUUUAGAGGAUAUCGUGCUAAACAUUACAUGAGAAGGCUAGACAUGAGGAUCACCCAUGUAUGCUCGUGA [Exclusion 6 - 8:b] (puzzle: Exclusion 6)
apparent KD of MS2 coat protein [2]: 0.0148 µM

GAUCUGUAAGGAUAUCGUGCAAGUUUCAAAAGAGGCUUGUGCGAGAAGGUACAUGAGGAUCACCCAUGUAGGUU [Omei Ex4 B15] (Eterna round: R97, puzzle: Exclusion 4)
apparent KD of MS2 coat protein (input ligand: FMN 200 uM): 0.0526 µM
apparent KD of MS2 coat protein (input ligand: none): 0.0401 µM

GAUGCACAUGAGGAUCACCCAUGUGAGGAUAUCAUUCCUAGAUCAGUCGGUCAGGAAAUGAGAAGGCGCCGGGA [Eternabot (L2) Solution 5] (Eterna round: R97, puzzle: Exclusion 1)
apparent KD of MS2 coat protein (input ligand: FMN 200 uM): 0.0286 µM
apparent KD of MS2 coat protein (input ligand: none): 0.0236 µM

GAUGUGGGUUUCCGGAGUAACAUGAGGAUCACCCAUGUAGAAGUUGGAGGGAUCAAGCUUUUUGGUCGUCAUAUGUG [JR_SV3TOV1_Sub052] (puzzle: Sensor v3, turn-off variant 1)
apparent KD of MS2 coat protein [3]: 0.288 µM
apparent KD of MS2 coat protein [2]: 0.246 µM
apparent KD of MS2 coat protein [4]: 0.422 µM

GAUUAUGCGAGCUUUAGGGACAUGAGGAUCACCCAUGUUCGUCUUAUUAAUCUAGGUGCGCUAACAUACCUAAAUCU [JMF 47] (puzzle: Sensor v3, turn-off variant 1)
apparent KD of MS2 coat protein [3]: 0.0215 µM
apparent KD of MS2 coat protein [2]: 0.032 µM
apparent KD of MS2 coat protein [4]: 0.0237 µM

GAUUAUGCGAGCUUUAGGGACAUGAGGAUCACCCAUGUUCGUCUUAUUAGUCUGAAUACGCUGACAUACCUAAAUCU [JMF 95] (puzzle: Sensor v3, turn-off variant 1)
apparent KD of MS2 coat protein [3]: 0.0163 µM
apparent KD of MS2 coat protein [2]: 0.0195 µM
apparent KD of MS2 coat protein [4]: 0.0192 µM

GAUUAUGCGAGCUUUAGGGACAUGAGGAUCACCCAUGUUCGUCUUAUUAGUCUGGGUGCACUGACAUACCUAAAUCU [JMF 93] (puzzle: Sensor v3, turn-off variant 1)
apparent KD of MS2 coat protein [3]: 0.169 µM
apparent KD of MS2 coat protein [2]: 0.202 µM
apparent KD of MS2 coat protein [4]: 0.32 µM

GAUUAUGCGAGCUUUAGGGACAUGAGGAUCACCCAUGUUCGUCUUAUUGAUCUGGAUACACUAACAUACCUAAAUCU [JMF 13] (puzzle: Sensor v3, turn-off variant 1)
apparent KD of MS2 coat protein [3]: 0.0268 µM
apparent KD of MS2 coat protein [2]: 0.0323 µM
apparent KD of MS2 coat protein [4]: 0.0252 µM

GAUUAUGCGAGCUUUAGGGACAUGAGGAUCACCCAUGUUCGUCUUAUUGAUCUGGGUACACUGACAUACCUAAAUCU [JMF 70] (puzzle: Sensor v3, turn-off variant 1)
apparent KD of MS2 coat protein [3]: 0.0888 µM
apparent KD of MS2 coat protein [2]: 0.115 µM
apparent KD of MS2 coat protein [4]: 0.11 µM

GAUUCACAUGACUGUCUAUACAUGAGGAUCACCCAUGUUUGUUUUUAUUUUUUUUUGCUUUUUAGUCGUCUUAUUAU [1 hard RNA] (Eterna round: R97, puzzle: Sensor, turn-off variant 1)
apparent KD of MS2 coat protein (input ligand: FMN 200 uM): 0.0371 µM
apparent KD of MS2 coat protein (input ligand: none): 0.0352 µM

GAUUCGCGAGGAUAUACAGUCGAGUCCAUUACGUGUCUGGGACUUGAGGAUCACCCAAGUAGAAGGCGUCUCAU [salish99_ex2_r4_638] (Eterna round: R97, puzzle: Exclusion 2)
apparent KD of MS2 coat protein (input ligand: FMN 200 uM): 0.0556 µM
apparent KD of MS2 coat protein (input ligand: none): 0.0578 µM

GAUUGACAUGAGGAUCACCCAUGUGAGGAUAUCGGCUGGACCGUGUUGGCUUGCCUCUCGAGAAGGCGCAUAGG [Exclusion 1 V52] (puzzle: Exclusion 1)
apparent KD of MS2 coat protein [3]: 0.0388 µM
apparent KD of MS2 coat protein [2]: 0.035 µM
apparent KD of MS2 coat protein [4]: 0.0438 µM

GAUUUUCAUGUAGGAUAUUCCACACAACAACUGGGAGAAGGACAUGAGGAUCACCCAUGUCCUACAACAACUUCAACAAACACA [Weak Sauce] (Eterna round: R96, puzzle: Exclusion NG 1)
apparent KD of MS2 coat protein (input ligand: FMN 200 uM): 0.0158 µM
apparent KD of MS2 coat protein [1]: 0.00975 µM
apparent KD of MS2 coat protein (input ligand: none): 0.0114 µM

GCAAGCUUUAUCAAUAAGAACAUGAGGAUCACCCAUGUAUAAGGUAUUACUUUUGGGCUCUUUAGUGCUCGUCUUAU [JR_STOV1_Sub034] (Eterna round: R97, puzzle: Sensor, turn-off variant 1)
apparent KD of MS2 coat protein (input ligand: FMN 200 uM): 0.0474 µM
apparent KD of MS2 coat protein (input ligand: none): 0.0515 µM

GCAAGCUUUAUCACUAUGAACAUGAGGAUCACCCAUGUAUAAGGUAUUACUUUUGGGCUCUUUAGUGCUCGUCUUAU [JR_STOV1_Sub033] (Eterna round: R97, puzzle: Sensor, turn-off variant 1)
apparent KD of MS2 coat protein (input ligand: FMN 200 uM): 0.0262 µM
apparent KD of MS2 coat protein (input ligand: none): 0.0267 µM

GCAAGCUUUUAGAUUUUCAACAUGAGGAUCACCCAUGUUCGUCUUGUGCUCGGGCUUGGGCGGUGUCCGGGUUUGGG [JL TOV1 3.76 sellena mod] (Eterna round: R97, puzzle: Sensor, turn-off variant 1)
apparent KD of MS2 coat protein (input ligand: FMN 200 uM): 0.0362 µM
apparent KD of MS2 coat protein (input ligand: none): 0.0383 µM

GCAAUGAGUGUGAGGAUAUGCUGGUCCUUGGAUCAGCAGAAGGCACAUGAGGAUCACCCAUGUGAAAACAUUGC [Mat - Exclusion 4 - JL Mod - D63] (puzzle: Brourd's mod of Exclusion 4)
apparent KD of MS2 coat protein [3]: 0.147 µM
apparent KD of MS2 coat protein [2]: 0.0174 µM
apparent KD of MS2 coat protein [4]: 0.0231 µM

GCACCGUCAGGAUAUACAUGAGGAUCACCCAUGUGACCACCACUGUUCAUGACGCAUUGUAGAAGGGACGGAAA [Eternabot (L2) Solution 47] (Eterna round: R97, puzzle: Exclusion 3)
apparent KD of MS2 coat protein (input ligand: FMN 200 uM): 0.25 µM
apparent KD of MS2 coat protein (input ligand: none): 0.0547 µM

GCACGAAGUGUAGGAUAUCUGUGCGAUUAGCUCAGAGAAGGACACAUGAGGAUCACCCAUGUGUUCCAAUACUCAAAUACGUGC [Eli exng1 - 0622] (Eterna round: R96, puzzle: Exclusion NG 1)
apparent KD of MS2 coat protein (input ligand: FMN 200 uM): 0.0101 µM
apparent KD of MS2 coat protein [1]: 0.00909 µM
apparent KD of MS2 coat protein (input ligand: none): 0.0122 µM

GCACGAAGUGUAGGAUAUCUGUGCGAUUAGCUCAGAGAAGGACACAUGAGGAUCACCCAUGUGUUCCAAUCACAAAAUACGUGC [Eli exng1 - 060] (Eterna round: R96, puzzle: Exclusion NG 1)
apparent KD of MS2 coat protein (input ligand: FMN 200 uM): 0.0117 µM
apparent KD of MS2 coat protein [1]: 0.011 µM
apparent KD of MS2 coat protein (input ligand: none): 0.0119 µM

GCACGAAGUGUAGGAUAUCUGUGCGAUUAGCUCAGAGAAGGACACAUGAGGAUCACCCAUGUGUUCCAGCGAAAGCAAACGUGC [Eli exng1 - 055] (Eterna round: R96, puzzle: Exclusion NG 1)
apparent KD of MS2 coat protein (input ligand: FMN 200 uM): 0.00968 µM
apparent KD of MS2 coat protein [1]: 0.00778 µM
apparent KD of MS2 coat protein (input ligand: none): 0.0129 µM

GCACGACAUCAGGAUAUGACUAGCUUCGGCUAGUCAGAAGGGAUGACAUGAGGAUCACCCAUGUGAUCACGUGC [E6/2-B1] (Eterna round: R97, puzzle: Exclusion 6)
apparent KD of MS2 coat protein (input ligand: FMN 200 uM): 0.122 µM
apparent KD of MS2 coat protein (input ligand: none): 0.0918 µM

GCACGGAAUGUAGGAUAUUAGUGCGAUUAGCACUGAGAAGGACAUGAGGAUCACCCAUGUAAUAACAUAAUAAACCUUCCGUGC [Eli exng1 - 046] (Eterna round: R96, puzzle: Exclusion NG 1)
apparent KD of MS2 coat protein (input ligand: FMN 200 uM): 0.0121 µM
apparent KD of MS2 coat protein [1]: 0.00827 µM
apparent KD of MS2 coat protein (input ligand: none): 0.0136 µM

GCACGGAGUGCAGGAUAUCUGUGCGAUUAGCUCAGAGAAGGGCACAUGAGGAUCACCCAUGUGUAUAAAACACAAAAUCCGUGC [Eli exng1 - 066] (Eterna round: R96, puzzle: Exclusion NG 1)
apparent KD of MS2 coat protein (input ligand: FMN 200 uM): 0.0221 µM
apparent KD of MS2 coat protein [1]: 0.0102 µM
apparent KD of MS2 coat protein (input ligand: none): 0.0145 µM

GCACGGAGUGUAGGAUAUCUGUGCGAUUAGCUCAGAGAAGGACAUGAGGAUCACCCAUGUGUGUUCCAAUACUCAAAUCCGUGC [Eli exng1 - 064] (Eterna round: R96, puzzle: Exclusion NG 1)
apparent KD of MS2 coat protein (input ligand: FMN 200 uM): 0.71 µM
apparent KD of MS2 coat protein [1]: 0.0554 µM
apparent KD of MS2 coat protein (input ligand: none): 0.0521 µM

GCACGGAGUGUAGGAUAUUAGUGCGAUUAGCACUGAGAAGGACAUGAGGAUCACCCAUGUUCCUCAAUAACAUACCUUCCGUGC [Eli exng1 - 042] (Eterna round: R96, puzzle: Exclusion NG 1)
apparent KD of MS2 coat protein [1]: 0.0095 µM

GCACGGAGUGUAGGAUAUUAGUGCGAUUAGCACUGAGAAGGACAUGAGGAUCACCCAUGUUCCUCAUAAAUUAGCCUUCCGUGC [Eli exng1 - 037] (Eterna round: R96, puzzle: Exclusion NG 1)
apparent KD of MS2 coat protein (input ligand: FMN 200 uM): 0.0274 µM
apparent KD of MS2 coat protein [1]: 0.021 µM
apparent KD of MS2 coat protein (input ligand: none): 0.027 µM

GCACGGAUGGUAGGAUAUCAUUGCGAUUAGCUAUGAGAAGGACCACAUGAGGAUCACCCAUGUCCUCUAAUUAGCCUUCCGUGC [Eli exng1 - 016] (Eterna round: R96, puzzle: Exclusion NG 1)
apparent KD of MS2 coat protein [1]: 0.156 µM

GCACGGAUGGUAGGAUAUCCUUGCGAUUAGCAAGGAGAAGGACCACAUGAGGAUCACCCAUGUACCUCAAUUAUCCUUCCGUGC [Eli exng1 - 023] (Eterna round: R96, puzzle: Exclusion NG 1)
apparent KD of MS2 coat protein (input ligand: FMN 200 uM): 0.0127 µM
apparent KD of MS2 coat protein [1]: 0.00918 µM
apparent KD of MS2 coat protein (input ligand: none): 0.0158 µM

GCAGAAAGUGUAGGAUAUAUAAAUUAGCGGAAACGCAAUACAUGAGGAUCACCCAUGUUUCCUCAAUAGAAGGGCAAAAGCUGC [EXNG2 V2 e] (Eterna round: R96, puzzle: Exclusion NG 2)
apparent KD of MS2 coat protein (input ligand: FMN 200 uM): 0.088 µM
apparent KD of MS2 coat protein [1]: 0.0379 µM
apparent KD of MS2 coat protein (input ligand: none): 0.0798 µM
